The results in this text go back to patent EP1254174B1.

Assay [1] addresses integrin α6β1 on human cells (1064SK fibroblasts, endothelial cells) (human) (UniProt P23229). Put plainly: cell-based or functional assay.
The next assay deals with Fisp12/mCTGF (mouse) (UniProt P29268). The experiment in a line: solid-phase binding isotherm: varied RGD-affinity purified αIIbβ3 on immobilized Fisp12/mCTGF, detected with 125I-mAb15; saturable.
In assay [2] the target is integrin β1 subunit (β1 integrins) on 1064SK fibroblasts (human) (UniProt P05556). Put plainly: cell-based or functional assay.
Assay [3] deals with integrin α4 subunit on 1064SK fibroblasts (human) (UniProt P13612). The experiment in a line: cell-based or functional assay.
Assay [4] has as its target integrin αv subunit (αv integrins αvβ1, αvβ3, αvβ5) on 1064SK fibroblasts (human) (UniProt P06756). The experiment in a line: cell-based or functional assay.
Assay [5] deals with αvβ3 integrin on human cells (HUVE cells, fibroblasts, platelets) (human) (UniProt P06756). Put plainly: cell-based or functional assay.
Assay [6] has as its target integrin α3 subunit on 1064SK fibroblasts (human) (UniProt P26006). Put plainly: cell-based or functional assay.
Assay [7] concerns the target integrin α5β1 (fibronectin receptor) on 1064SK fibroblasts (human) (UniProt P08648). Put plainly: cell-based or functional assay.
The target in assay [8] is integrin α2 subunit on 1064SK fibroblasts (human) (UniProt P17301). Put plainly: cell-based or functional assay.
Assay [9] concerns the target integrin α1 subunit on 1064SK fibroblasts (human) (UniProt P56199). Put plainly: cell-based or functional assay.

Chain of integrin α6β1 on human cells (1064SK fibroblasts, endothelial cells) (human) (P23229 24-1130, chain 1 of 2): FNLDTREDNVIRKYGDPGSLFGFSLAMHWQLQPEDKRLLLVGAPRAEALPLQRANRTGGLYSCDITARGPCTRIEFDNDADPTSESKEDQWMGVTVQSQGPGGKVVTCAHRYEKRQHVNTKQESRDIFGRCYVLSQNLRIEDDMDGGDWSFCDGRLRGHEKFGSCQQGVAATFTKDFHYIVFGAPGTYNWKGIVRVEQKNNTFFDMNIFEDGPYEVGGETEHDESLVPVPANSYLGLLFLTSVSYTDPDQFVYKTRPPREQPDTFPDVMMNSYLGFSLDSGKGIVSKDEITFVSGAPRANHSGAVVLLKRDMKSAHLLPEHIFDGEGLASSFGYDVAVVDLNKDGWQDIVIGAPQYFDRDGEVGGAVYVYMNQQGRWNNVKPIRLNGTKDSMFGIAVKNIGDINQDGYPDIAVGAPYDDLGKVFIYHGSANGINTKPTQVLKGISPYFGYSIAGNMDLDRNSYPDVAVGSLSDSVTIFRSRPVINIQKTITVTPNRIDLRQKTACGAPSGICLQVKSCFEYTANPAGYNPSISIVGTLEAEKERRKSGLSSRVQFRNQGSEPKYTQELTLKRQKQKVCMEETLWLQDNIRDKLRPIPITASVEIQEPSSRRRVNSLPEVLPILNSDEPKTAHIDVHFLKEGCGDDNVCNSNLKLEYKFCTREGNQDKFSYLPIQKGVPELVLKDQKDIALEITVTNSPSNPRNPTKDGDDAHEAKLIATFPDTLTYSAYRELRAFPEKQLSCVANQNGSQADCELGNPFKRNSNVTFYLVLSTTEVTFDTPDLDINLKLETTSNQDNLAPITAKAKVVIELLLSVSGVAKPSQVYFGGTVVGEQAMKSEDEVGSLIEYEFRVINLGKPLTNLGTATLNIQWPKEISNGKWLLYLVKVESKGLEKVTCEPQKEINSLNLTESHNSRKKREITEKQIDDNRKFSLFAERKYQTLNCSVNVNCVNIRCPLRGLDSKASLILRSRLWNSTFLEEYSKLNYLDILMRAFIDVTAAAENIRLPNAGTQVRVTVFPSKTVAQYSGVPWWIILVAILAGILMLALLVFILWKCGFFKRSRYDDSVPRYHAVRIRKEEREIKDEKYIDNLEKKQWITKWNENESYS
Chain of integrin α6β1 on human cells (1064SK fibroblasts, endothelial cells) (human) (P05556 21-798, chain 2 of 2, further chain): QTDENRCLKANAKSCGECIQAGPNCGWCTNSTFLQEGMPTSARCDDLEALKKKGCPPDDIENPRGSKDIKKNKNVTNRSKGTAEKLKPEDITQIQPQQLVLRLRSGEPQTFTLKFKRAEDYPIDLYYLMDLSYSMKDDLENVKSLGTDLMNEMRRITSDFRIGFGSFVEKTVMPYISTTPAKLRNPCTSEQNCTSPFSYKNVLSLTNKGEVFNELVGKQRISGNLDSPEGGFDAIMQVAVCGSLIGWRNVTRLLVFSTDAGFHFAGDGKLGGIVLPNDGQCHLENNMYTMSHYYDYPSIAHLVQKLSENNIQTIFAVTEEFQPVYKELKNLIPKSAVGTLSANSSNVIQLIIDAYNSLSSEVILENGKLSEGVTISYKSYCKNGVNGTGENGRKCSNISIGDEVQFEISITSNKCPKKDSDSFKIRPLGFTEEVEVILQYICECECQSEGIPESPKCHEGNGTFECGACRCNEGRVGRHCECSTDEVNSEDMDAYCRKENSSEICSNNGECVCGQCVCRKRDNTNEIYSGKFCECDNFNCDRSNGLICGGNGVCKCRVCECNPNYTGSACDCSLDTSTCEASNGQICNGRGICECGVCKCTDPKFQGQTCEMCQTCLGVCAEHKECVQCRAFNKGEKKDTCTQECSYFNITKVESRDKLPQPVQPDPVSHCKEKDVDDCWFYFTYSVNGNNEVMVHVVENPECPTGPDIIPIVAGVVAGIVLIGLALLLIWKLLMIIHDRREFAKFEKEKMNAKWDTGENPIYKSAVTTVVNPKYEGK
Chain of integrin β1 subunit (β1 integrins) on 1064SK fibroblasts (human) (P05556 21-798): as the sequence (P05556 21-798, chain 2 of 2, further chain) above
Chain of αvβ3 integrin on human cells (HUVE cells, fibroblasts, platelets) (human) (P06756 31-1048, chain 1 of 2): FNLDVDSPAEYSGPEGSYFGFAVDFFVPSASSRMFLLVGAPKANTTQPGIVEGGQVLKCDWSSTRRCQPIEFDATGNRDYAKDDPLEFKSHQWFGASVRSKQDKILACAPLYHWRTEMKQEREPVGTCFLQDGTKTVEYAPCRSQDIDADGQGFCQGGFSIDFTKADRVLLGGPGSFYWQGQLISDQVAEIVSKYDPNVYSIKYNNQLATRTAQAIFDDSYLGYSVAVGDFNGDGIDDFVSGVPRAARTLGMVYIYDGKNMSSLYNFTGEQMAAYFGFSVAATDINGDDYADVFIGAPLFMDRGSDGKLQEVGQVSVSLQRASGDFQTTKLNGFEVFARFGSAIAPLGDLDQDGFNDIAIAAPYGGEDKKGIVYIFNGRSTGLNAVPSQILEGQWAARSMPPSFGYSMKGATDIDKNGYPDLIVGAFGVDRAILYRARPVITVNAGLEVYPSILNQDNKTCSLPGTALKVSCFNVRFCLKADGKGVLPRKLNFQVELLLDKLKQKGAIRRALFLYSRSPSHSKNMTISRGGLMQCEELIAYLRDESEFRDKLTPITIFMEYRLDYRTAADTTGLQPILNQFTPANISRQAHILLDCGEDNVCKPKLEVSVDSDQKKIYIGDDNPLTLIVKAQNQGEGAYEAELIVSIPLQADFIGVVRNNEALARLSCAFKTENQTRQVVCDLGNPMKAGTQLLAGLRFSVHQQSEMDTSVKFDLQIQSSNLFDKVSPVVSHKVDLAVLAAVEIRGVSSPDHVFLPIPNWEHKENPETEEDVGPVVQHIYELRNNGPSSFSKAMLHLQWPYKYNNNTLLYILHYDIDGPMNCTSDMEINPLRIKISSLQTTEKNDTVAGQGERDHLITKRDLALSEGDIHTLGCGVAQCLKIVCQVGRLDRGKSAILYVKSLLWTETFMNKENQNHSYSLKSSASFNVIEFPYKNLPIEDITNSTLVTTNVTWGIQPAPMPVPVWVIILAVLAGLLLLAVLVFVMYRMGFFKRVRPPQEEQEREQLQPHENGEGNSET
Chain of αvβ3 integrin on human cells (HUVE cells, fibroblasts, platelets) (human) (P05106 27-788, chain 2 of 2, further chain): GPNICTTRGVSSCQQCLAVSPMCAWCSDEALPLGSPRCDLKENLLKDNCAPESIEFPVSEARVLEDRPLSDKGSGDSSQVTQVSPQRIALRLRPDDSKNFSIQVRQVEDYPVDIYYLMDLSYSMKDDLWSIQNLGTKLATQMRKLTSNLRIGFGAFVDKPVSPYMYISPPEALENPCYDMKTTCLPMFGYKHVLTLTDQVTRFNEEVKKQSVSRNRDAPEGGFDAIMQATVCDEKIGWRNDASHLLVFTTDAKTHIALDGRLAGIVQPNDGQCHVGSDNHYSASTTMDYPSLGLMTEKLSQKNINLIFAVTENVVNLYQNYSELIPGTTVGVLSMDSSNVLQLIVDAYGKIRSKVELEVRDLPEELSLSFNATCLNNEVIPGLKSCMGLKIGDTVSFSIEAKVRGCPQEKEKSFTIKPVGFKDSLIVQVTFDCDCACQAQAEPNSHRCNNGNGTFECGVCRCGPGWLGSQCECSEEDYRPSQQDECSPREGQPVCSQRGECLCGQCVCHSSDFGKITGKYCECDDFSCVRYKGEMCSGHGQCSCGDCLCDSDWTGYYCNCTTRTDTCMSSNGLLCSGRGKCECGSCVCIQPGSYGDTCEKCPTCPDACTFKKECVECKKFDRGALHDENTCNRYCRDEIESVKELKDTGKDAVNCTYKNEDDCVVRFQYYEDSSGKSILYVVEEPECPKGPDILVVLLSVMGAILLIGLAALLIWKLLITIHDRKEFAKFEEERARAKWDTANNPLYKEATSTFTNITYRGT
Chain of Fisp12/mCTGF (mouse) (P29268 26-348 E161K limits assumed, form in doubt): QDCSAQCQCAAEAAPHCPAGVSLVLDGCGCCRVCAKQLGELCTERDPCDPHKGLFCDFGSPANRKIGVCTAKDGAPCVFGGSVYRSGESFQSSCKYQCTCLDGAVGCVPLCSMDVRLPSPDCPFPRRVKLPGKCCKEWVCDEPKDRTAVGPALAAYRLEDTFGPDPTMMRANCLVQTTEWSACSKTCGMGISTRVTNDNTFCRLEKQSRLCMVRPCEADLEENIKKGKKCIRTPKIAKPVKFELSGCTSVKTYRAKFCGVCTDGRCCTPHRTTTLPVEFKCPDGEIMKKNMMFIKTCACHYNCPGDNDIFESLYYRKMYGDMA

On to mouse laminin (ligand), for which, in [1], the A620, 1064SK adhesion to laminin (5 µg/ml) after anti-α6 antibody; 0.62 without antibody worked out at 0.48 A620 and the percent inhibition of 1064SK adhesion to laminin by anti-α6 antibody worked out at 22%.

“activated αIIbβ3 (RGD-affinity purified from human platelet lysates) (from UniProt P08514 32-1039; P05106 27-788) (receptor)”: the half-saturation concentration in the assay with Fisp12/mCTGF (mouse) stood at 15 nM.

As to “rat tail Type-I collagen (from UniProt P02454 152-1207; P02466 86-1125) (ligand)”, in assay [2], the A620, 1064SK adhesion to type I collagen (2 µg/ml) after anti-β1 antibody JB1A; 0.56 without antibody was 0.21 A620 and the percent inhibition of 1064SK adhesion to type I collagen by anti-β1 antibody JB1A came to 62%.

Regarding “human Cyr61 (from UniProt O00622 25-381) (ligand)”, the A620, 1064SK adhesion to Cyr61 (2 µg/ml) after anti-α4 antibody (40 µg/ml); control without antibody 0.58 in [3] is 0.56 A620. For the same substance, in assay [4], the A620, 1064SK adhesion to Cyr61 (2 µg/ml) after anti-αv antibody (40 µg/ml); no addition 0.75 came out at 0.73 A620. Also, in [5], the relative binding capacity of HUVE cells on wild-type Cyr61 (5 µg/ml) after anti-αvβ3 antibody LM609 (40 µg/ml); no pre-incubation = 100 came out at 42%. Further, in assay [6], the A620, 1064SK adhesion to Cyr61 (2 µg/ml) after anti-α3 antibody (40 µg/ml); control without antibody 0.58 was 0.55 A620. In addition, in assay [2], the A620, 1064SK adhesion to Cyr61 (2 µg/ml) after anti-β1 antibody JB1A (50 µg/ml); 0.53 without antibody stood at 0.14 A620 and the percent inhibition of 1064SK adhesion to Cyr61 by anti-β1 antibody JB1A turned out to be 75%. The same substance returned an A620, 1064SK adhesion to Cyr61 (2 µg/ml) after anti-α5 antibody (40 µg/ml); no addition 0.75 in assay [7] of 0.77 A620. In [8], this substance registered an A620, 1064SK adhesion to Cyr61 (2 µg/ml) after anti-α2 antibody (40 µg/ml); control without antibody 0.58 of 0.6 A620. Besides, the A620, 1064SK adhesion to Cyr61 (2 µg/ml) after anti-α1 antibody (40 µg/ml); control without antibody 0.58 in assay [9] came out at 0.54 A620. In [1], this substance returned an A620, 1064SK adhesion to Cyr61 (2 µg/ml) after anti-α6 antibody (20 µg/ml); 0.53 without antibody of 0.08 A620; a percent inhibition of 1064SK adhesion to Cyr61 by anti-α6 antibody of over 80%; a percent inhibition of 1064SK adhesion to wild-type Cyr61 by anti-α6 antibody (20 µg/ml) of 78%.
